Laboratory results as given in the supplement of paper PMC9732359.
± gives the uncertainty stated by the source.

Assay: protein stability index of a GFP-peptide fusion (yeast GPS) (PSI 1-4); higher = more stable; sorted into four equal gates, so the index is relative within each strain
How it was run: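 Yeast carrying a pooled library were grown to mid-log phase in leucine-free medium. Each library plasmid expresses Cherry and has a tiled 17-residue yeast protein peptide fused downstream of GFP. Cells were sorted into four equal gates by GFP/Cherry ratio, and plasmids from each gate were PCR-amplified, Illumina-sequenced and assigned to strains by barcode. Summing, across gates, the read frequency times the gate number gave each peptide's protein stability index.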

Sequence | protein stability index (doa10∆) | protein stability index (pdr5∆) | protein stability index (san1∆) | protein stability index (ubr1∆)
PKAVVDHINGSGKRKPT [GAL11] | 2.25 ± 0.076 | 2.81 ± 0.064 | 1.52 ± 0.11 | 2.16 ± 0.079
SDVSDFEGWGHEYIRHL [RPN1] | 3.07 ± 0.15 | 3.09 ± 0.14 | 3.17 ± 0.14 | 3.37 ± 0.15
DDDLFETLVLSYFSPIN [YCG1] | 2.23 ± 0.069 | 1.44 ± 0.05 | 1.36 ± 0.093 | 1.35 ± 0.032
GDLASLVLLNGRLRNKS [RPP1] | 2.83 ± 0.054 | 2.85 ± 0.041 | 2.83 ± 0.04 | 2.81 ± 0.038
ICNTLNIAKDLKWKKGI [SMC1] | 1.43 ± 0.1 | 1.26 ± 0.14 | 1.45 ± 0.17 | 2.69 ± 0.24
KNFIESESVGAFLSFLA [YJL039C/NUP192] | 2.1 ± 0.066 | 2.25 ± 0.068 | 2.47 ± 0.066 | 2.85 ± 0.045
LVGSWKKDRATGDADEP [RPO21] | 3.14 ± 0.22 | 3.55 ± 0.11 | 3.15 ± 0.11 | 3.46 ± 0.081
NSDKPRDVYVFDKVEVQ [DIS3] | 2.96 ± 0.058 | 2.93 ± 0.066 | 3.1 ± 0.056 | 3 ± 0.059
FGVPNSSKNETSKPVFS [YLR335W/NUP2] | 2.32 ± 0.035 | 2.97 ± 0.13 | 2.55 ± 0.13 | 3.15 ± 0.068
AQFTFGKAATAKETHTK [YOR098C/NUP1] | 2.84 ± 0.13 | 2.81 ± 0.17 | 2.84 ± 0.18 | 3.02 ± 0.18
CKEVGITAVHVKIRATG [RPS14A] | 1.93 ± 0.043 | 1.82 ± 0.039 | 1.81 ± 0.085 | 1.89 ± 0.035
LQYLPLYAVSTFENTNN [SIR4] | 1.82 ± 0.038 | 1.71 ± 0.042 | 1.41 ± 0.057 | 2.31 ± 0.046
AAPSGNYKQLTLVGGGA [RRP43] | 1.36 ± 0.093 | 2.33 ± 0.07 | 2.23 ± 0.13 | 2.5 ± 0.079
CKSLISENEDTKDLLSK [CSE2] | 3.23 ± 0.098 | 3.21 ± 0.093 | 3.1 ± 0.066 | 3.22 ± 0.12
RTKNLVSKMEKAEKTLK [SMC4] | 2.91 ± 0.22 | 3.1 ± 0.056 | 3.21 ± 0.065 | 3.09 ± 0.058
LLEETQAKLKKNVETLE [SMC4] | 3.39 ± 0.092 | 3.18 ± 0.085 | 3.31 ± 0.08 | 3.51 ± 0.071
LMLKKLKNSIMSFIFPS [YML031W/NDC1] | 2.21 ± 0.058 | 2.3 ± 0.066 | 2.28 ± 0.073 | 2.37 ± 0.062
IDVNLNFARQLLFNNDF [RRP40] | 2.93 ± 0.064 | 1.56 ± 0.057 | 1.36 ± 0.13 | 1.82 ± 0.05
GCVNSLISGPRNQILVS [YMR129W/POM152] | – | 1.36 ± 0.22 | – | –
MSNIVGIEYNRVTNTTS [RPC40] | 3.36 ± 0.22 | 3.33 ± 0.13 | 2.73 ± 0.08 | 2.88 ± 0.096
SQLAKWKTAEEVSALVR [PRP8] | 1.26 ± 0.17 | – | – | –
SDSSKPAFSFGTKSNEK [YJL041W/NSP1] | 2.97 ± 0.073 | 2.19 ± 0.058 | 2.79 ± 0.076 | 2.75 ± 0.041
RMSYGSHDKKTKCSTVV [SRP14] | 2.96 ± 0.092 | 3.07 ± 0.12 | 3.19 ± 0.045 | 3.33 ± 0.088
RSISEPSINLDPDNTSF [ESC2] | 2.9 ± 0.074 | 3 ± 0.057 | 3.07 ± 0.058 | 3.165 ± 0.031
KIIDNPKSFLKKDQSVL [YMR129W/POM152] | 3.06 ± 0.083 | 3.34 ± 0.098 | 3.07 ± 0.071 | 3.2 ± 0.095
FFKPLDYITEAVFKIVL [SNU114] | 2.06 ± 0.047 | 1.95 ± 0.055 | 1.47 ± 0.073 | 1.88 ± 0.035
LNTKSIQIDEETENSES [MCD1] | 2.16 ± 0.096 | 2.52 ± 0.11 | 2.87 ± 0.1 | 2.92 ± 0.1

Sequence | protein stability index (doa10∆) | protein stability index (pdr5∆) | protein stability index (san1∆) | protein stability index (ubr1∆)
NRQVMHKMGVERSSKRL [SIR3] | 3.23 ± 0.17 | 3.49 ± 0.14 | 3.46 ± 0.14 | 3.34 ± 0.19
FSQFWYWFPLAHFLSLS [RPN2] | 1.66 ± 0.044 | 1.32 ± 0.045 | 1.21 ± 0.11 | 1.19 ± 0.038
LRDTFIELDQVLNMLYW [RPO21] | 2.19 ± 0.1 | 2.51 ± 0.058 | 2.4 ± 0.07 | 2.27 ± 0.06
TAAETFKLFNKYRPETA [RPL8A] | 2.8 ± 0.065 | 3 ± 0.059 | 2.64 ± 0.072 | 2.8 ± 0.051
AQGTKFRISLGLPVGAI [RPL23A] | 1.94 ± 0.1 | 1.84 ± 0.063 | 1.42 ± 0.17 | 1.92 ± 0.11
GSEILGDLKLQVLLDEE [RPO21] | 3.25 ± 0.12 | 3.35 ± 0.13 | 3.04 ± 0.14 | 3.28 ± 0.1
NKLNFIVDDKQEMIDIL [DIB1] | 3.37 ± 0.099 | 3.01 ± 0.17 | 2.9 ± 0.15 | 3 ± 0.12
KLKQLLDESSEQKNTAK [YIL149C/MLP2] | 3.02 ± 0.11 | 3.22 ± 0.11 | 2.6 ± 0.17 | 2.99 ± 0.065
EGSWDRGIPRISTLFQR [PRP8] | 2.79 ± 0.19 | – | 3.24 ± 0.14 | 3.06 ± 0.11
WLKEYEDETLRRIKEAE [YIL149C/MLP2] | 2.83 ± 0.11 | 3.19 ± 0.12 | 3.17 ± 0.069 | 3.44 ± 0.11
TSQHSDSLTQNNNNAPI [YOR098C/NUP1] | 2.72 ± 0.051 | 2.95 ± 0.036 | 2.94 ± 0.043 | 2.88 ± 0.031
LGLKLACLGNDGILRLY [YGL100W/SEH1] | 1.78 ± 0.056 | 1.75 ± 0.05 | 1.86 ± 0.057 | 1.72 ± 0.034
RAIYSYLSGAIPNQEVL [YDL116W/NUP84] | 2.4 ± 0.066 | 2.58 ± 0.079 | 2.5 ± 0.089 | 2.76 ± 0.055
INAQGEEIVVVASADYE [PRP8] | 2.91 ± 0.09 | 3.33 ± 0.096 | 2.78 ± 0.07 | 2.73 ± 0.04
DPIWQHQSLGPDGLGEV [RET1] | 2.96 ± 0.11 | 3.13 ± 0.11 | 3.04 ± 0.11 | 3.35 ± 0.15
TRLTAYQELAYRATSLD [YML031W/NDC1] | 3.13 ± 0.11 | 3.01 ± 0.11 | 3.32 ± 0.072 | 3.04 ± 0.11
AIMKPYYLWTGKQVFSL [RPO31] | 2.71 ± 0.13 | 2.91 ± 0.11 | 2.83 ± 0.085 | 2.72 ± 0.061
ESINNVVDQLWSEISNE [RPN2] | 2.77 ± 0.065 | 2.94 ± 0.053 | 2.83 ± 0.096 | 2.63 ± 0.041
DFIKFDQIAVCEISGSI [BRN1] | 2.32 ± 0.14 | 2.4 ± 0.12 | 2.12 ± 0.14 | 2.82 ± 0.076
SFPILDQCVGQVGLNFE [YMR129W/POM152] | 3.07 ± 0.083 | 2.96 ± 0.11 | 3.1 ± 0.056 | 3.02 ± 0.07
SEEINQYVTQIEQEKQE [PRE6] | 2.68 ± 0.075 | 1.76 ± 0.063 | 2.59 ± 0.085 | 2.62 ± 0.086
FVSNMGFDIQKSCEPVS [SIR4] | 2.06 ± 0.066 | 2.05 ± 0.12 | 1.68 ± 0.24 | 2.12 ± 0.075
DILQITKKPLMVKNVKP [SIR4] | 2.79 ± 0.063 | 2.72 ± 0.049 | 2.55 ± 0.069 | 2.63 ± 0.062
CGAWEPAITIEKLKQFS [SIR3] | 1.97 ± 0.087 | 1.76 ± 0.079 | 2.58 ± 0.13 | 1.54 ± 0.072
MKDRLVEWNDQVEKLGK [RPN9] | 3.4 ± 0.13 | 3.06 ± 0.1 | 3.36 ± 0.083 | 3.39 ± 0.085
SDSNANAAVAGVANTDT [SWI3] | 3.28 ± 0.063 | 3.33 ± 0.07 | 3.22 ± 0.044 | 2.91 ± 0.061
